# Source: patent US7101851 (dated 2006)
# Bridges are numbered along the chain shown (N, C = ends). Where no end group is shown, it is not given here. [ ]: non-standard residue; d: D form. Pip = O=C(O)[C@@H]1CCCCN1; dPip = O=C(O)[C@H]1CCCCN1; hCys = N[C@@H](CCS)C(=O)O; NMeA = CN[C@@H](C)C(=O)O
# T1: alpha subunit of the human FcεRI receptor (IgE high affinity receptor), expressed on Chinese hamster ovary … (human, UniProt P12319 26-257)
# T1 construct: whole, on cells; also called CHO FcεRI+ cells; FcεRIα
# T1 sequence (looked up): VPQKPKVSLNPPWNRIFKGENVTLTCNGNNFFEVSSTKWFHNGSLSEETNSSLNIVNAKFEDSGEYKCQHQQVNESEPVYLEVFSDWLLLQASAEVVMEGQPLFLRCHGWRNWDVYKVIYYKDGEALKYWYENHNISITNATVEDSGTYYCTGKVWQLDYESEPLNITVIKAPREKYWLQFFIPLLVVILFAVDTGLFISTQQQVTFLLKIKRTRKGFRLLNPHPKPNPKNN
# B1: IGE162-2 (peptide)
# peptide: VQC[Pip]HFCYFGGAELCPDVCYV-NH2
# modifications: disulfide 7-15, 3-19
# B2: IGE161-1 (peptide)
# peptide: VQCPHFCYFGGAELC[dPip]DVCYV-NH2
# modifications: disulfide 7-15, 3-19
# B3: IGE164 (peptide)
# peptide: VQCPHFCYFGGAEL[hCys]PDVCYV-NH2
# modifications: disulfide (positions not given here)
# B4: IGE175 (peptide)
# peptide: VQCPHFCYELDYELCPWVCYV-NH2
# modifications: not fully specified (bridges); cysteine pairing not given here
# B5: IGE190 (peptide)
# peptide: VQCPDFCYELDYELCPDVCYV-NH2
# modifications: not fully specified (bridges); cysteine pairing not given here
# B6: IGE161-2 (peptide)
# peptide: VQCPHFCYFGGAELC[Pip]DVCYV-NH2
# modifications: disulfide 7-15, 3-19
# B7: IGE158 (peptide)
# peptide: VQCPHFCYFGGAELC[NMeA]DVCYV-NH2
# modifications: disulfide 7-15, 3-19; N-terminus assumed
# SMILES: CC(C)C[C@@H]1NC(=O)[C@H](CCC(=O)O)NC(=O)[C@H](C)NC(=O)CNC(=O)CNC(=O)[C@H](Cc2ccccc2)NC(=O)[C@H](Cc2ccc(O)cc2)NC(=O)[C@@H]2CSSC[C@H](NC1=O)C(=O)N(C)[C@@H](C)C(=O)N[C@@H](CC(=O)O)C(=O)N[C@@H](C(C)C)C(=O)N[C@H](C(=O)N[C@@H](Cc1ccc(O)cc1)C(=O)N[C@H](C(N)=O)C(C)C)CSSC[C@H](NC(=O)[C@H](CCC(N)=O)NC(=O)[C@@H](N)C(C)C)C(=O)N1CCC[C@H]1C(=O)N[C@@H](Cc1c[nH]cn1)C(=O)N[C@@H](Cc1ccccc1)C(=O)N2
# B8: IGE162-1 (peptide)
# peptide: VQC[dPip]HFCYFGGAELCPDVCYV-NH2
# modifications: disulfide 7-15, 3-19
# B9: IGE155 (peptide)
# peptide: CPHFCYELDYELCPDVCY-NH2
# modifications: not fully specified (bridges); cysteine pairing not given here
# B10: IGE153 (peptide)
# peptide: VQCPHFCYELDYELCPDVCY-NH2
# modifications: not fully specified (bridges); cysteine pairing not given here
# B11: IGE141 (peptide)
# peptide: IVCPRLCYELDYELCPDVCYV-NH2
# modifications: cysteine pairing not given here
# B12: IGE151 (peptide)
# peptide: VQCPHFCYFGGAELCPDVCYV
# modifications: not fully specified (bridges); cysteine pairing not given here
# B13: IGE165 (peptide)
# peptide: VQCPHFCYFGGAELCPDV[hCys]YV-NH2
# modifications: disulfide (positions not given here)
# B14: IGE152 (peptide)
# peptide: VQCPHFCYFGAELCPDVCYV
# modifications: disulfide 7-14, 3-18
# B15: IGE169 (peptide)
# peptide: VQCPHFCYFGAELCPAVCYV-NH2
# modifications: disulfide 7-14, 3-18; N-terminus assumed
# SMILES: CC(C)C[C@@H]1NC(=O)[C@H](CCC(=O)O)NC(=O)[C@H](C)NC(=O)CNC(=O)[C@H](Cc2ccccc2)NC(=O)[C@H](Cc2ccc(O)cc2)NC(=O)[C@@H]2CSSC[C@H](NC1=O)C(=O)N1CCC[C@H]1C(=O)N[C@@H](C)C(=O)N[C@@H](C(C)C)C(=O)N[C@H](C(=O)N[C@@H](Cc1ccc(O)cc1)C(=O)N[C@H](C(N)=O)C(C)C)CSSC[C@H](NC(=O)[C@H](CCC(N)=O)NC(=O)[C@@H](N)C(C)C)C(=O)N1CCC[C@H]1C(=O)N[C@@H](Cc1c[nH]cn1)C(=O)N[C@@H](Cc1ccccc1)C(=O)N2
# B16: IGE157 (peptide)
# peptide: QCPHFCYELDYELCPDVCY-NH2
# modifications: not fully specified (bridges); cysteine pairing not given here
# B17: IGE146 (peptide)
# peptide: VQCPHFCYVGEALCPDVCYV-NH2
# modifications: disulfide 7-14, 3-18; N-terminus assumed
# SMILES: CC(C)C[C@@H]1NC(=O)[C@H](C)NC(=O)[C@H](CCC(=O)O)NC(=O)CNC(=O)[C@H](C(C)C)NC(=O)[C@H](Cc2ccc(O)cc2)NC(=O)[C@@H]2CSSC[C@H](NC1=O)C(=O)N1CCC[C@H]1C(=O)N[C@@H](CC(=O)O)C(=O)N[C@@H](C(C)C)C(=O)N[C@H](C(=O)N[C@@H](Cc1ccc(O)cc1)C(=O)N[C@H](C(N)=O)C(C)C)CSSC[C@H](NC(=O)[C@H](CCC(N)=O)NC(=O)[C@@H](N)C(C)C)C(=O)N1CCC[C@H]1C(=O)N[C@@H](Cc1c[nH]cn1)C(=O)N[C@@H](Cc1ccccc1)C(=O)N2
# B18: IGE166 (peptide)
# peptide: VQCPHF[hCys]YFGGAELCPDVCYV-NH2
# modifications: disulfide 7-15, 3-19
# B19: IGE156 (peptide)
# peptide: VQCPHFCYELDYELCPDVCYVGR
# modifications: not fully specified (bridges); cysteine pairing not given here
# notes: produced as Z-domain fusion in E. coli and released with trypsin
# B20: IGE135 (peptide)
# peptide: VQCPHFCYFGGAELCPDVCYV-NH2
# modifications: cysteine pairing not given here
# B21: IGE191 (peptide)
# peptide: VQCPDFCYFGGAELCPDVCYV-NH2
# modifications: not fully specified (bridges); cysteine pairing not given here
# B22: IGE136 (peptide)
# peptide: VQCPHFCYFGGAELCPGVCYV-NH2
# modifications: cysteine pairing not given here
# B23: IGE159 (peptide)
# peptide: VQC[NMeA]HFCYFGGAELCPDVCYV-NH2
# modifications: disulfide 7-15, 3-19; N-terminus assumed
# SMILES: CC(C)C[C@@H]1NC(=O)[C@H](CCC(=O)O)NC(=O)[C@H](C)NC(=O)CNC(=O)CNC(=O)[C@H](Cc2ccccc2)NC(=O)[C@H](Cc2ccc(O)cc2)NC(=O)[C@@H]2CSSC[C@H](NC1=O)C(=O)N1CCC[C@H]1C(=O)N[C@@H](CC(=O)O)C(=O)N[C@@H](C(C)C)C(=O)N[C@H](C(=O)N[C@@H](Cc1ccc(O)cc1)C(=O)N[C@H](C(N)=O)C(C)C)CSSC[C@H](NC(=O)[C@H](CCC(N)=O)NC(=O)[C@@H](N)C(C)C)C(=O)N(C)[C@@H](C)C(=O)N[C@@H](Cc1c[nH]cn1)C(=O)N[C@@H](Cc1ccccc1)C(=O)N2
# Molecular target: T1, alpha subunit of the human FcεRI …
# Assay: inhibition of 125I-IgE binding to CHO cells expressing human FcεRI alpha; competitor IgE
# Description: To determine the ability of peptides to inhibit IgE binding to FcεRI, a cell-based binding assay was used with radiolabeled IgE. Chinese hamster ovary cells expressing the alpha subunit of the human FcεRI receptor were cultured overnight in Falcon 96 well microtiter plates at a concentration of 5 ×10^4 cells per well. The following day the cells were rinsed three times with PBS and then once with F12/DMEM. Peptide stocks were reconstituted in 100 mM Hepes buffered water, pH 7.2, at a concentration of 5 mg/mL. Working concentrations of the peptide were diluted in assay buffer (see below). 75 uL of a desired concentration of peptide was added to the top row of a separate 96 well microtiter plate and serially diluted 1:3 in 50 uL of the assay buffer (F12/DMEM, 1% BSA, 0.05% NaN_3 and 0.025 mM Hepes pH 7.2). Starting concentrations ranged from 50–500 uM. Next, 50 uL of the diluted peptide was transferred to the 96 microtiter well plate containing a monolayer of CHO FcεRI+ cells. […] Cells were […]
row,Binder,IC50 [nM]
1,B1,430
2,B2,41000
3,B3,40700
4,B4,57
5,B5,58
6,B6,680
7,B7,1080
8,B8,4090
9,B9,69
10,B10,49
11,B11,131
12,B12,130
13,B13,1170
14,B14,52
15,B15,128
16,B16,107
17,B17,890
18,B18,65000
19,B19,30
20,B20,47
21,B21,210
22,B22,119
23,B23,380
